For one data set, the target named is T1, SaroL-1 (Salpingoeca rosetta, UniProt F2UID9).
T1 construct: gene PTSG_08235; monomeric in solution
The data set can be described thus: Inhibition of SaroL-1 (217 nM) induced hemolysis of rabbit erythrocytes after 1 h pre-incubation of lectin with sugar at RT, then 1-2 h at 37 °C, absorbance of supernatant at 540 nm. Conditions: n = 2. Format: cell-based. As to the method: Hemolytic assay (HA) and inhibition of hemolytic activity (IHA)
(§1) Both HA and IHA assays were performed in U-shaped 96-well microtiter plates. In both cases, a control negative experiment was performed with Buffer A added to erythrocyte solution (2% final concentration), and the resulting value was subtracted from all data.
IHA was performed in U-shaped 96-well microtiter plates. […] 4% rabbit erythrocytes were added to the mixture in a 1:1 ratio and incubated for 1–2 h at 37 °C. The samples were centrifuged, 2600 × g for 15 min at RT, and the absorbance of the supernatant was measured at 540 nm by a Tecan reader.

In data set [1] the test system is H1299 cells. Put plainly: Cell detachment assay. Format: cell-based, human. The procedure:
(§2) The human lung epithelial cell line H1299 (American Type Culture Collection, CRL-5803) was cultured in a complete medium, consisting of Roswell Park Memorial Institute (RPMI) medium supplemented with 10% fetal calf serum (FCS) and 2 mM L-glutamine at 37 °C and 5% CO2. Cells were stimulated with different concentrations of SaroL-1 in a complete medium for indicated time points.
To determine the role of SaroL-1 in cell detachment, 3 × 10^5 cells per well were counted and allowed to adhere overnight in a 6-well plate. The next day, cells were incubated for 2, 4, or 8 h with two different concentrations of SaroL-1 (270 nM and 1.36 µM) diluted in a complete medium compared to a negative control. As a positive control, cells were incubated with trypsin-EDTA for 10 min at 37 °C, to induce 100% cell detachment. The number of cells in suspension at the indicated time points was quantified by analyzing the supernatant with the CytoSmart Corning cell counter. Cells were resuspended with Trypan Blue solution (Sigma-Aldrich) in a ratio 1:1 for the quantification of cellular death upon detachment.

Another data set deals with rabbit erythrocytes. The data set can be described thus: Hemolytic assay (HA). Format: cell-based. The procedure: as §1
SaroL-1 with an initial concentration of 27 μM was diluted by serial 2-fold dilution in Buffer A. Rabbit erythrocytes were purchased from Atlantis France and used without further washing. The erythrocytes were diluted to a 4% solution in 150 mM NaCl. Protein solution and rabbit erythrocytes were mixed together in a 1:1 ratio and incubated for 1 h at 37 °C. After the samples were centrifuged, 2600 × g for 15 min at RT and the absorbance of the supernatant was measured at 540 nm by a Tecan reader.

Data set [2] is described as follows: Confocal imaging of SaroL-1 binding to FSL-Gb3 GUVs. Conditions: 200 nM fluorescent-labelled SaroL-1, FSL-Gb3 GUVs. An excerpt: (§3) GUVs were composed of 1,2-dioleoyl-sn-glycero-3-phosphocholine (DOPC), cholesterol (both AvantiPolar Lipids, United States), Atto 647 N 1,2-dioleoyl-sn-glycero-3-phosphoethanolamine (DOPE; Sigma-Aldrich), and one of the following glycolipids at a molar ratio of 64.7:30:0.3:5. The glycolipids are globotriaosylceramide (Gb3, Matreya), FSL-Gb3 (Function-Spacer-Lipid with globotriaosyl saccharide), and corresponding FSL-isoGb3 (Function-Spacer-Lipid with iso-globotriaosyl saccharide) synthetized as previously described[84],[85], FSL-A(tri) (Function-Spacer-Lipid with blood group A trisaccharide; Sigma-Aldrich), FSL-B(tri) (Function-Spacer-Lipid with blood group B trisaccharide; Sigma-Aldrich) or lactosylceramide (LC, Sigma-Aldrich).
(§4) GUVs were prepared by the electroformation method as earlier described. Briefly, lipids dissolved in chloroform of a total concentration of 0.5 mg/mL were spread on indium tin oxid-covered (ITO) glass slides and dried in a vacuum for at least 1 h or overnight. […]
(§5) Samples of GUVs and SaroL-1 were imaged using a confocal fluorescence microscope (Nikon Eclipse Ti-E inverted microscope equipped with Nikon A1R confocal laser scanning system, 60x oil immersion objective, NA = 1.49 and four laser lines: 405 nm, 488 nm, 561 nm, and 640 nm). […]

Data set [3] relates to H1299 cells. The data set can be described thus: Lactate dehydrogenase (LDH) assay. It counts as cell-based, human. Conditions: 271 nM and 1.36 µM SaroL-1, 2 and 4 h. The procedure: as §2
This assay was used to monitor rapid changes in cell viability following the formation of pores induced by SaroL-1. Prior to running the assay, kit components were assembled according to CyQuant^TM LDH Cytotoxicity assay kit (Invitrogen—Thermo Fisher Scientific) manufacturer´s instructions. 1 × 10^4 cells per well were plated in 100 µL in triplicates in a 96-well plate with a flat bottom and allowed to adhere overnight. […] After 30 min\ of incubation at room temperature and in absence of light, 50 µL of Stop solution were added to each well and the absorbance of samples was recorded at 490 nm and 680 nm using a BioTek microplate reader. To determine LDH activity, the reference absorbance at […] (background) was subtracted from the 490 nm absorbance values before calculation of % cytotoxicity. % cytotoxicity was calculated according to the following formula = [SaroL-1-treated LDH activity − spontaneous LDH activity]/[maximum LDH activity − spontaneous LDH activity] × 100.

A short description of data set [4]: Confocal imaging of SaroL-1 binding to Gb3 wt GUVs. Further details: species or system porcine. Conditions: 200 nM fluorescent SaroL-1, Gb3 wt GUVs, compared with FSL-Gb3 GUVs.
Description: as §3, §4, §5

Usually IC50 stands for the point on the concentration scale where inhibition reaches its midpoint. The low end stands for inhibition by little substance, the high end for a need for much substance. The molecule `O=[N+]([O-])c1ccc(O[C@H]2O[C@H](CO)[C@H](O)[C@H](O)[C@H]2O)cc1` [PNPG, p-nitrophenyl-α-D-galactopyranoside] yielded an IC50 on SaroL-1 of 2900 µM.

B1: SaroL-1: Recombinant pore-forming lectin of Salpingoeca rosetta (UniProt F2UID9, 329 amino acids) with β-trefoil and aerolysin-like domains (protein)
chain: MSSTFEPATDSPLPVPGVQYFLQHVQSGKYVHPHGGSDMPGNDTALVLHHGFDEKRDALRWVFVNDAENKHQLKHYSSGKFVHPKGGKVGKEATLVVHSSPGRPETMIEMVQEDGRTYLRHTDSDYYVHPHGGSPNPGDNTRLVYYSGYRPSLAFLAIPAETLFVDRIEIHQAQALESINTITSLSDEHRNDTDQPVQTSISVALEESLQDSAQLSFERCFGLKVGSEFEVGLPLVGKTKVSVQFSGSWKSSTIKGEVRTSAVKVQINEHVTIPPGKCVQIRIDTRRCTKTAPATMYLRTASGIEVQRETTVTSTYHYDQEVHVVPVTN
modifications: left off: His6, N-terminal, state not stated
notes: Recombinant pore-forming lectin of Salpingoeca rosetta (UniProt F2UID9, 329 amino acids) with β-trefoil and aerolysin-like domains
With B1, the “time point at which cell detachment is promoted” value in the data set with H1299 cells [1] (271 nM SaroL-1) stood at 8 h. Moreover, the “cell rounding and detachment (in words)” value in the data set with H1299 cells [1] (compared to PBS-treated cells) is “dose-dependent rounding and detachment of cells”. In the data set on H1299 cells [1] (highest concentration, 1.36 µM SaroL-1), the “time point at which detachment of cells is visible” value turned out to be 2 h. The “Hemolysis MEAN %” value in the data set with rabbit erythrocytes (SaroL-1 7 nM) is -2.217%; in the data set on rabbit erythrocytes (SaroL-1 14 nM) it was -0.8961%; in the data set on rabbit erythrocytes (SaroL-1 27 nM) it was -0.5487%; with rabbit erythrocytes (SaroL-1 55 nM), 5.667%; in the data set with rabbit erythrocytes (SaroL-1 110 nM), 24.3716%; with rabbit erythrocytes (SaroL-1 217 nM), 59.5625%. For the same molecule, the “Hemolysis MEAN %” value came to 85.1119% in the data set on rabbit erythrocytes (SaroL-1 423 nM); 95.7679% in the data set with rabbit erythrocytes (SaroL-1 843 nM); 93.9729% in the data set on rabbit erythrocytes (SaroL-1 1680 nM); 95.1481% in the data set on rabbit erythrocytes (SaroL-1 3400 nM); 95.7781% in the data set on rabbit erythrocytes (SaroL-1 6790 nM); 100% in the data set with rabbit erythrocytes (SaroL-1 13590 nM). For the same molecule, the “binding to GUVs” value in data set [2] is recorded as “Strong binding”; in data set [4], “of the same order”. In addition, the “LDH release / membrane damage (in words)” value with H1299 cells [3] is recorded as “induced acute cytotoxicity”.

For the origin of these results see publication PMC9468336, “The choanoflagellate pore-forming lectin SaroL-1 punches holes in cancer cells by targeting the tumor-related glycosphingolipid Gb3” (Communications Biology, 2022).
